Source: US20240390531A1 (IMAGINAB, published 2024)
Each block holds one binder with its values, some of them ahead of it.

Columns and labels:
[1] = target: T1, purified human FAP antigen (human, UniProt Q12884 26-760, limits assumed); assay: ELISA, plate coated with purified human FAP antigen (FIG. 56A-56C)
FAP = FAP (UniProt Q12884 26-760, limits assumed); assay: binding kinetics, method not stated (FIG. 42B)
[2] = target: T2, purified murine FAP antigen (murine, UniProt P97321 26-761, limits assumed); assay: ELISA, cross-reactivity (FIG. 57B)
[3] = target: T2, purified murine FAP antigen; assay: ELISA, cross-reactivity (FIG. 92)
[4] = target: T1, purified human FAP antigen; assay: ELISA, plate coated with purified human FAP antigen (FIG. 91B)
Description: (§1) Binding kinetics of the novel antigen binding constructs to a purified human FAP antigen was assessed using ELISA. For this assay, a 96 well ELISA plate was coated with the human-FAP antigen diluted to a concentration of 2 mg/mL in coating buffer (0.05M sodium carbonate-bicarbonate buffer, pH 9.6). 100 μl of this coating solution was added to each well in the plate and incubate at 4° C. overnight. The plate was washed 3 times with 300 μl per well of washing buffer (PBS with 0.05% Tween-20). After the last wash, the plate was blocked by adding to each well 200 μl of blocking buffer (PBS with 1% BSA) warmed to room temperature. The plate was then incubated at room temperature for 1 hour under gentle agitation. After blocking, the plate was washed 3 times with 300 μl per well of washing buffer. Dilution samples for each minibody were created by making 2.5× dilutions from a starting sample at 100 ng/mL, or 250 ng/mL, or 1000 ng/mL or 3000 ng/mL in 100 μL sample buffer (PBS with 1% BSA). The dilution samples were transferred to the assay plate and incubated at room temperature for 1 hour under gentle agitation. The plate was then washed 3 times with 300 μl per well of washing buffer.

[5] = target: T1, purified human FAP antigen; assay: ELISA, plate coated with purified human FAP antigen (FIG. 91E)
Description: as §1

[6] = target: T1, purified human FAP antigen; assay: ELISA, plate coated with purified human FAP antigen (FIG. 56F-56G)
Description: as §1
Detection was performed by adding 100 μl of HRP labeled detection secondary antibody at an appropriate dilution and incubating the plate at room temperature for 1 hour under gentle agitation. The plate was then washed 3 times with 300 μl per well of washing buffer. For color development, 100 μl of TMB substrate regent, pre-warmed to room temperature, was added to the plate and incubated in the dark at room temperature for 15 min. The reaction was then stopped by adding 100 μl of 650 nm stop solution to the plate and mixed for 1 min at room temperature under gentle agitation. The plate is recorded by reading OD at 650 nm in a plate reader within 20 min after terminating the reaction.

[7] = target: T2, purified murine FAP antigen; assay: ELISA, cross-reactivity (FIG. 57A)

T2 sequence (P97321 26-761 limits assumed): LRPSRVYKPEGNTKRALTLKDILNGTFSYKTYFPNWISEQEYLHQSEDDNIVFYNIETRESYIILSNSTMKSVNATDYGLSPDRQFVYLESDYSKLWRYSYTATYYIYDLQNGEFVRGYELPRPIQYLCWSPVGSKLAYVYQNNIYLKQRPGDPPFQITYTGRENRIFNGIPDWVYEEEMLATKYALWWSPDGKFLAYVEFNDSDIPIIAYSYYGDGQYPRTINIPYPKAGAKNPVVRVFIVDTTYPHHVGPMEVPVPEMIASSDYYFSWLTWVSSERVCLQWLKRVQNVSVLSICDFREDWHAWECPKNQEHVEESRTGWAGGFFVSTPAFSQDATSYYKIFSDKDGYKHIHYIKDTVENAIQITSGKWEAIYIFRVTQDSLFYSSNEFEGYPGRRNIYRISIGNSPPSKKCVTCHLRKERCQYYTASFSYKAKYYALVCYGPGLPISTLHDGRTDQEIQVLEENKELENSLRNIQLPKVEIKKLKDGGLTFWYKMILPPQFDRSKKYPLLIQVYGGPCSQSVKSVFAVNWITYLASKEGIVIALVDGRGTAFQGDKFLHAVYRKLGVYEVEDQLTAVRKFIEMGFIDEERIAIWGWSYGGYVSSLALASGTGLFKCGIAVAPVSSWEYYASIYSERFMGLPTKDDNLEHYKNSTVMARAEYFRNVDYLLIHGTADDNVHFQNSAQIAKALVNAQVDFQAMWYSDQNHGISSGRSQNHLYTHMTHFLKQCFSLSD

- Kd [1]: ~0.1 nM
- Kd (FAP): 1.15 nM
- koff (FAP): 0.00108 s⁻¹
- kon (FAP): 935000 M⁻¹ s⁻¹
- fold change of KD, murine FAP against human FAP [2]: ~10 fold
B1: IAB16M2-37 (other)
chain: QVQLVQSGAEVKKPGASVKVSCKASGYTFTEYTIHWVRQAPGQRLEWIGGINPNNGIPNYNQKFKGRVTITVDTSASTAYMELSSLRSEDTAVYYCARRRIAYGYDEGHAMDYWGQGTLVTVSSGSTSGGGSGGGSGGGGSSDIVMTQSPDSLAVSLGERATINCKSSQSLLYSRNQKNYLAWYQQKPGQPPKLLIFWASTRESGVPDRFSGSGSGTDFTLTISRLEPEDFAVYYCQQYYSYPLTFGQGTKVEIKEPKSSDKTHTCPPCPPCGGGSSGGGSGGQPREPQVYTLPPSREEMTKNQVSLTCLVKGFYPSDIAVEWESNGQPENNYKTTPPVLDSDGSFFLYSKLTVDKSRWQQGNVFSCSVMHEALHNHYTQKSLSLSPG
notes: also called IAB16B2-37

- binding result [3]: binds
- Kd [4]: ~0.1 nM
B2: IAB16M2-43 (other)
chain: QVQLQESGPGLVKPSETLSLTCTVSGFSLTNYDINWIRQPPGKGLEWIGLIWTGGGTNYNPSLKSRVTISKDTSKNQFSLKLSSVTAADTAVYYCVRGGPLVWYALDYWGQGTLVTVSSGSTSGGGSGGGSGGGGSSDIQMTQSPSSLSASVGDRVTITCKASQDVSTAVAWYQQKPGKAPKLLIYSASYRYTGVPSRFSGSGSGTDFTFTISSLQPEDIATYYCQQHYSNPRTFGGGTKVEIKEPKSSDKTHTCPPCPPCGGGSSGGGSGGQPREPQVYTLPPSREEMTKNQVSLTCLVKGFYPSDIAVEWESNGQPENNYKTTPPVLDSDGSFFLYSKLTVDKSRWQQGNVFSCSVMHEALHNHYTQKSLSLSPG

- Kd [5]: ~0.1 nM
B3: IAB16M2-53 (other)
chain: QVQLQESGPGLVKPSETLSLTCTVSGFSLTNYDINWIRQPPGKGLEWIGLIWTGGGTNYNPSLKSRVTISKDTSKSQFSLKLSSVTAADTAVYYCVRGGPLVWYALDYWGQGTLVTVSSGSTSGGGSGGGSGGGGSSDIQMTQSPSSLSASVGDRVTITCKASQDVSTAVAWYQQKPGKAPKLLIYSASYRYTGVPSRFSGSGSGTDFTFTISSLQPEDIATYYCQQHYSNPRTFGGGTKVEIKEPKSSDKTHTCPPCPPCGGGSSGGGSGGQPREPQVYTLPPSREEMTKNQVSLTCLVKGFYPSDIAVEWESNGQPENNYKTTPPVLDSDGSFFLYSKLTVDKSRWQQGNVFSCSVMHEALHNHYTQKSLSLSPG

- Kd [6]: ~1 nM
- binding result [7]: binds
B4: IAB16C3-26 (other)
chain: EIVLTQSPGTLSLSPGERATLSCRASQSVSRSYLAWYQQKPGQAPRLLIIGASTRATGIPDRFSGSGSGTDFTLTISRLEPEDFAVYYCQQGQVIPPTFGQGTKVEIKGGGSGGGGEVQLLESGGGLVQPGGSLRLSCAASGFTFSSHAMSWVRQAPGKGLEWVSAIWASGEQYYADSVKGRFTISRDNSKNTLYLQMNSLRAEDTAVYYCAKGWLGNFDYWGQGTLVTVSSGGCPPCPPC
